# B1: Rho guanine nucleotide exchange factor 16 (Homo sapiens), Q5VV41 (parent)
# chain: MAQRHSDSSLEEKLLGHRFHSELRLDAGGNPASGLPMVRGSPRVRDDAAFQPQVPAPPQPRPPGHEEPWPIVLSTESPAALKLGTQQLIPKSLAVASKAKTPARHQSFGAAVLSREAARRDPKLLPAPSFSLDDMDVDKDPGGMLRRNLRNQSYRAAMKGLGKPGGQGDAIQLSPKLQALAEEPSQPHTRSPAKNKKTLGRKRGHKGSFKDDPQLYQEIQERGLNTSQESDDDILDESSSPEGTQKVDATIVVKSYRPAQVTWSQLPEVVELGILDQLSTEERKRQEAMFEILTSEFSYQHSLSILVEEFLQSKELRATVTQMEHHHLFSNILDVLGASQRFFEDLEQRHKAQVLVEDISDILEEHAEKHFHPYIAYCSNEVYQQRTLQKLISSNAAFREALREIERRPACGGLPMLSFLILPMQRVTRLPLLMDTLCLKTQGHSERYKAASRALKAISKLVRQCNEGAHRMERMEQMYTLHTQLDFSKVKSLPLISASRWLLKRGELFLVEETGLFRKIASRPTCYLFLFNDVLVVTKKKSEESYMVQDYAQMNHIQVEKIEPSELPLPGGGNRSSSVPHPFQVTLLRNSEGRQEQLLLSSDSASDRARWIVALTHSERQWQGLSSKGDLPQVEITKAFFAKQADEVTLQQADVVLVLQQEDGWLYGERLRDGETGWFPEDFARFITSRVAVEGNVRRMERLRVETDV
# B2: A-kinase anchor protein 1, mitochondrial (Homo sapiens), Q92667 (parent)
# chain: MAIQFRSLFPLALPGMLALLGWWWFFSRKKGHVSSHDEQQVEAGAVQLRADPAIKEPLPVEDVCPKVVSTPPSVTEPPEKELSTVSKLPAEPPALLQTHPPCRRSESSGILPNTTDMRLRPGTRRDDSTKLELALTGGEAKSIPLECPLSSPKGVLFSSKSAEVCKQDSPFSRVPRKVQPGYPVVPAEKRSSGERARETGGAEGTGDAVLGEKVLEEALLSREHVLELENSKGPSLASLEGEEDKGKSSSSQVVGPVQEEEYVAEKLPSRFIESAHTELAKDDAAPAPPVADAKAQDRGVEGELGNEESLDRNEEGLDRNEEGLDRNEESLDRNEEGLDRNEEIKRAAFQIISQVISEATEQVLATTVGKVAGRVCQASQLQGQKEESCVPVHQKTVLGPDTAEPATAEAAVAPPDAGLPLPGLPAEGSPPPKTYVSCLKSLLSSPTKDSKPNISAHHISLASCLALTTPSEELPDRAGILVEDATCVTCMSDSSQSVPLVASPGHCSDSFSTSGLEDSCTETSSSPRDKAITPPLPESTVPFSNGVLKGELSDLGAEDGWTMDAEADHSGGSDRNSMDSVDSCCSLKKTESFQNAQAGSNPKKVDLIIWEIEVPKHLVGRLIGKQGRYVSFLKQTSGAKIYISTLPYTQSVQICHIEGSQHHVDKALNLIGKKFKELNLTNIYAPPLPSLALPSLPMTSWLMLPDGITVEVIVVNQVNAGHLFVQQHTHPTFHALRSLDQQMYLCYSQPGIPTLPTPVEITVICAAPGADGAWWRAQVVASYEETNEVEIRYVDYGGYKRVKVDVLRQIRSDFVTLPFQGAEVLLDSVMPLSDDDQFSPEADAAMSEMTGNTALLAQVTSYSPTGLPLIQLWSVVGDEVVLINRSLVERGLAQWVDSYYTSL
# B3: Prostaglandin D2 receptor (Homo sapiens), Q13258 (parent)
# chain: MKSPFYRCQNTTSVEKGNSAVMGGVLFSTGLLGNLLALGLLARSGLGWCSRRPLRPLPSVFYMLVCGLTVTDLLGKCLLSPVVLAAYAQNRSLRVLAPALDNSLCQAFAFFMSFFGLSSTLQLLAMALECWLSLGHPFFYRRHITLRLGALVAPVVSAFSLAFCALPFMGFGKFVQYCPGTWCFIQMVHEEGSLSVLGYSVLYSSLMALLVLATVLCNLGAMRNLYAMHRRLQRHPRSCTRDCAEPRADGREASPQPLEELDHLLLLALMTVLFTMCSLPVIYRAYYGAFKDVKEKNRTSEEAEDLRALRFLSVISIVDPWIFIIFRSPVFRIFFHKIFIRPLRYRSRCSNSTNMESSL
# B4: Sodium bicarbonate cotransporter 3 (Homo sapiens), Q9Y6M7 (parent)
# chain: MERFRLEKKLPGPDEEAVVDLGKTSSTVNTKFEKEELESHRAVYIGVHVPFSKESRRRHRHRGHKHHHRRRKDKESDKEDGRESPSYDTPSQRVQFILGTEDDDEEHIPHDLFTEMDELCYRDGEEYEWKETARWLKFEEDVEDGGDRWSKPYVATLSLHSLFELRSCILNGTVMLDMRASTLDEIADMVLDNMIASGQLDESIRENVREALLKRHHHQNEKRFTSRIPLVRSFADIGKKHSDPHLLERNGEGLSASRHSLRTGLSASNLSLRGESPLSLLLGHLLPSSRAGTPAGSRCTTPVPTPQNSPPSSPSISRLTSRSSQESQRQAPELLVSPASDDIPTVVIHPPEEDLEAALKGEEQKNEENVDLTPGILASPQSAPGNLDNSKSGEIKGNGSGGSRENSTVDFSKVDMNFMRKIPTGAEASNVLVGEVDFLERPIIAFVRLAPAVLLTGLTEVPVPTRFLFLLLGPAGKAPQYHEIGRSIATLMTDEIFHDVAYKAKDRNDLLSGIDEFLDQVTVLPPGEWDPSIRIEPPKSVPSQEKRKIPVFHNGSTPTLGETPKEAAHHAGPELQRTGRLFGGLILDIKRKAPFFLSDFKDALSLQCLASILFLYCACMSPVITFGGLLGEATEGRISAIESLFGASLTGIAYSLFAGQPLTILGSTGPVLVFEKILYKFCRDYQLSYLSLRTSIGLWTSFLCIVLVATDASSLVCYITRFTEEAFAALICIIFIYEALEKLFDLGETYAFNMHNNLDKLTSYSCVCTEPPNPSNETLAQWKKDNITAHNISWRNLTVSECKKLRGVFLGSACGHHGPYIPDVLFWCVILFFTTFFLSSFLKQFKTKRYFPTKVRSTISDFAVFLTIVIMVTIDYLVGVPSPKLHVPEKFEPTHPERGWIISPLGDNPWWTLLIAAIPALLCTILIFMDQQITAVIINRKEHKLKKGAGYHLDLLMVGVMLGVCSVMGLPWFVAATVLSISHVNSLKVESECSAPGEQPKFLGIREQRVTGLMIFILMGLSVFMTSVLKFIPMPVLYGVFLYMGVSSLKGIQLFDRIKLFGMPAKHQPDLIYLRYVPLWKVHIFTVIQLTCLVLLWVIKVSAAAVVFPMMVLALVFVRKLMDLCFTKRELSWLDDLMPESKKKKEDDKKKKEKEEAERMLQDDDDTVHLPFEGGSLLQIPVKALKYSPDKPVSVKISFEDEPRKKYVDAETSL
# B5: Monocarboxylate transporter 4 (Homo sapiens), O15427 (parent)
# chain: MGGAVVDEGPTGVKAPDGGWGWAVLFGCFVITGFSYAFPKAVSVFFKELIQEFGIGYSDTAWISSILLAMLYGTGPLCSVCVNRFGCRPVMLVGGLFASLGMVAASFCRSIIQVYLTTGVITGLGLALNFQPSLIMLNRYFSKRRPMANGLAAAGSPVFLCALSPLGQLLQDRYGWRGGFLILGGLLLNCCVCAALMRPLVVTAQPGSGPPRPSRRLLDLSVFRDRGFVLYAVAASVMVLGLFVPPVFVVSYAKDLGVPDTKAAFLLTILGFIDIFARPAAGFVAGLGKVRPYSVYLFSFSMFFNGLADLAGSTAGDYGGLVVFCIFFGISYGMVGALQFEVLMAIVGTHKFSSAIGLVLLMEAVAVLVGPPSGGKLLDATHVYMYVFILAGAEVLTSSLILLLGNFFCIRKKPKEPQPEVAAAEEEKLHKPPADSGVDLREVEHFLKAEPEKNGEVVHTPETSV
# Variants of: B1
# Conditions: with scrib_human SCRIB
row,Variant,effect of a mutation on the interaction
1,T707E,disrupting interaction strength

# Variants of: B1
# Conditions: with dlg1_human DLG1, Q12959
# dlg1_human DLG1, Q12959, sequence (Q12959 whole entry, looked up): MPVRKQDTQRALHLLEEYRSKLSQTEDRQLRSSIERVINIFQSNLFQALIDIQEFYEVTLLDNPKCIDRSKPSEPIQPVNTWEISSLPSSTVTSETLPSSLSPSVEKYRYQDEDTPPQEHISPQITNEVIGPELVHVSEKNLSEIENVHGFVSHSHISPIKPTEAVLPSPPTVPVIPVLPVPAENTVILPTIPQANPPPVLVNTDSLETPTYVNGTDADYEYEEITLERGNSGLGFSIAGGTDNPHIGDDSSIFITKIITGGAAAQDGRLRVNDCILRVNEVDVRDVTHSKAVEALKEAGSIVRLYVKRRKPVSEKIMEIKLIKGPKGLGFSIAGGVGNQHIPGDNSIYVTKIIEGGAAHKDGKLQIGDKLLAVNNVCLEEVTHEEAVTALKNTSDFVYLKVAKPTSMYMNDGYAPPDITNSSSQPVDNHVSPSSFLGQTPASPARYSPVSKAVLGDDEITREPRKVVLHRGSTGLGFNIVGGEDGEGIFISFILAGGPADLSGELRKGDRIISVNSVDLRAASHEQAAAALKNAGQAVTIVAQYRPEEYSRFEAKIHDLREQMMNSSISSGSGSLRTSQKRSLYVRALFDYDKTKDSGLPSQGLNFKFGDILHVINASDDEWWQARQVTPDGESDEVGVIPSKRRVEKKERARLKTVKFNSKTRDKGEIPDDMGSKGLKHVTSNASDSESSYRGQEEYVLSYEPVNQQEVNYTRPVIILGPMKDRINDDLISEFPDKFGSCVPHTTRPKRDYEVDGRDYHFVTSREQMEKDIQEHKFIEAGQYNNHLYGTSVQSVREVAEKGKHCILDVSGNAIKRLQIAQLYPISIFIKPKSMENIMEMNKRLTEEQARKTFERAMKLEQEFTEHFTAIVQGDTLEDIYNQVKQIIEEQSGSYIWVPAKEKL
row,Variant,effect of a mutation on the interaction
1,T707E,disrupting interaction strength

# Variants of: B2
# Conditions: with scrib_human SCRIB
# Target sequence in this assay (Q14160 whole entry): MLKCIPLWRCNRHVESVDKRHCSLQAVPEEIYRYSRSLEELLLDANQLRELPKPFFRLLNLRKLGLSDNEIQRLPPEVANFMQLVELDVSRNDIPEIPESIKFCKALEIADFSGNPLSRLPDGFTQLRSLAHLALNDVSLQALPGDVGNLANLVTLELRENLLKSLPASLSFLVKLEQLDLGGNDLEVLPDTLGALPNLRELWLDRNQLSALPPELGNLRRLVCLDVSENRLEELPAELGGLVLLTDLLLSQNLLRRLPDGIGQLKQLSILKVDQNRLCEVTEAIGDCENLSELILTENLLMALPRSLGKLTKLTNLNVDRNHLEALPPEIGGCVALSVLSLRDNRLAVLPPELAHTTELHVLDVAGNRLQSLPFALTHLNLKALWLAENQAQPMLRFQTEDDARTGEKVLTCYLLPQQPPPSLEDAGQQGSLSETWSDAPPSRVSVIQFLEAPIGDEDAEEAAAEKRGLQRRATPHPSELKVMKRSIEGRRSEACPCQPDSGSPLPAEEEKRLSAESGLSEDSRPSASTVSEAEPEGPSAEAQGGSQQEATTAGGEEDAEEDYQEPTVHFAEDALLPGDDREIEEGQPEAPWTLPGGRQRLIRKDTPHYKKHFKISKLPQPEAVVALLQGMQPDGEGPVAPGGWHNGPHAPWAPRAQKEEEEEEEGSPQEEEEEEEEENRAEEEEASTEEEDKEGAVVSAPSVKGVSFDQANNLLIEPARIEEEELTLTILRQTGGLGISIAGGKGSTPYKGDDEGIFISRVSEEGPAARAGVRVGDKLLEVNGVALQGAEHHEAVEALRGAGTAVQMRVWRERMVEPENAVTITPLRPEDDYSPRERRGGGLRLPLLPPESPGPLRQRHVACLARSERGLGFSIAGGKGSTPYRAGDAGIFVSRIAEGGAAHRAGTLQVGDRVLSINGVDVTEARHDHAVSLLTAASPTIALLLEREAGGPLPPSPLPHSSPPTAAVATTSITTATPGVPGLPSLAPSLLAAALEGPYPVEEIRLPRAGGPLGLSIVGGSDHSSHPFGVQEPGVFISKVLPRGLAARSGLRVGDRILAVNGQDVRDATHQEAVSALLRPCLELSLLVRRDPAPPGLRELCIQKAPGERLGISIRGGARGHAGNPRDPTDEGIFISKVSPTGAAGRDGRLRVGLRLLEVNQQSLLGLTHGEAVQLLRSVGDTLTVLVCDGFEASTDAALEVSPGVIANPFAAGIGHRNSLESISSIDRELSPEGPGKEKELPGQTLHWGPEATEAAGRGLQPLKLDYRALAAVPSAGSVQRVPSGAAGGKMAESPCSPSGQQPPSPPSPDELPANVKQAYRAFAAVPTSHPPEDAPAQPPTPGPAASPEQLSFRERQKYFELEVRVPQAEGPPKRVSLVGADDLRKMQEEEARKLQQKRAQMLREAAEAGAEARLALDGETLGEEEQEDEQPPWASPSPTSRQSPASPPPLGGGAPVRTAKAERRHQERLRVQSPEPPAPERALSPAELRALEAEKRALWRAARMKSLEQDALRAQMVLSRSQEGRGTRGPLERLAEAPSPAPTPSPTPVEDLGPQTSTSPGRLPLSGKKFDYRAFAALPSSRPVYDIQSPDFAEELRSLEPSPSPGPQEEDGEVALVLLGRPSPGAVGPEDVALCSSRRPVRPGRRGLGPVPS
row,Variant,effect of a mutation on the interaction
1,S902E,increasing interaction strength

# Variants of: B3
# Conditions: with scrib_human SCRIB
# Target sequence in this assay (Q14160 whole entry): as above
row,Variant,effect of a mutation on the interaction
1,S358E,causing an interaction

# Variants of: B4
# Conditions: with scrib_human SCRIB
# Target sequence in this assay (Q14160 whole entry): as above
row,Variant,effect of a mutation on the interaction
1,S1213E,with no effect

# Variants of: B5
# Conditions: with scrib_human SCRIB
# Target sequence in this assay (Q14160 whole entry): as above
row,Variant,effect of a mutation on the interaction
1,S464E,with no effect
